This is an account of results in patent US20250243261A1.

The target of this assay is SARS-CoV-2 BQ.1.1 Spike RBD (SARS-CoV-2 BQ.1.1 variant). The assay can be described thus: BLI, IgG.

Chain of LY-1404 WT IgG (antibody) (VH): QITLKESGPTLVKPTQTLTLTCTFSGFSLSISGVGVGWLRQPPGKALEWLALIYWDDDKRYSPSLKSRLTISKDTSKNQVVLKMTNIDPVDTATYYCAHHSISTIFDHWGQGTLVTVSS
Chain of LY-1404 WT IgG (antibody) (VL): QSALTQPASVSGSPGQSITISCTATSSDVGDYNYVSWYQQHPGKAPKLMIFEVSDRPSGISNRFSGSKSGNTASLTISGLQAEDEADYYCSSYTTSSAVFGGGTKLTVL

Substance LY-1404 WT IgG (antibody) had an equilibrium dissociation constant (Kd) of 1700 nM.
